Results as given in paper PMC3433420.
Values joined by “and” are separate entries in the source; they are usually repeats but may differ in a detail not shown here. Equal values may be shown once. Read-outs that look alike come from different tables or passages of the source. Each block holds one substance with its values, some of them ahead of it.

What was measured:
[1] = target: PLCG1 C-terminal SH2 domain (human); assay: SPR; Biacore 3000; 6X His SH2 proteins held on a Ni-NTA chip, dye-free peptides in solution, equilibrium
[2] = target: PIK3R3 C-terminal SH2 domain (human); assay: as above
[3] = target: PIK3R1 N-terminal SH2 domain (human); assay: as above
[4] = target: YES1 SH2 domain (human) (UniProt P07947); assay: peptide or protein array; SH2/PTB proteins spotted on aldehyde slides, rhodamine peptide titrated in buffer B (20 mM HEPES, 100 mM KCl, 0.1% Tween-20, 5 mM DTT, pH 7.8), 1 h at room temperature; replicate assays
Sequence of YES1 SH2 domain (human) (P07947 158-255): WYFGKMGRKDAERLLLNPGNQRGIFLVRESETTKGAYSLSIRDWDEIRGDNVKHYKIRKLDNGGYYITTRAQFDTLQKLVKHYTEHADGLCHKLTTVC

[5] = target: BLK SH2 domain (human) (UniProt P51451); assay: as above
Sequence of BLK SH2 domain (human) (P51451 124-220): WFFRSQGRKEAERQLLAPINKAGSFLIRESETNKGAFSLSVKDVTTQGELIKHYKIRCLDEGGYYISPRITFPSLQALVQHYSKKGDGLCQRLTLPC

[6] = target: SH3BP2 SH2 domain (human) (UniProt P78314); assay: as above
Sequence of SH3BP2 SH2 domain (human) (P78314 457-555): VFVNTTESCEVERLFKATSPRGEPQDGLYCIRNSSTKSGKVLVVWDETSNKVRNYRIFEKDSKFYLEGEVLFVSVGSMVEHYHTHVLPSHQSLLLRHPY

[7] = target: SYK tandem SH2 domains (human); assay: as above
[8] = target: MET pY1313 phosphopeptide, rhodamine-labelled; assay: fluorescence polarisation; saturation binding in solution: rhodamine peptide fixed at 10 nM, protein titrated 0.002-10 uM, 20 min at room temperature; assay buffer 20 mM HEPES, 100 mM KCl, 0.1% Tween-20, 5 mM DTT, pH 7.8; apparent KD
[9] = target: ErbB1 pY801 phosphopeptide, rhodamine-labelled (human); assay: as above
[10] = target: ErbB2 pY685 phosphopeptide, rhodamine-labelled (human); assay: as above
[11] = target: ErbB1 Y900 non-phosphorylated peptide, rhodamine-labelled (human); assay: as above
[12] = target: ABL1 (Homo sapiens) (UniProt P00519); conditions: cited from earlier work
Sequence of ABL1 (Homo sapiens) (P00519 122-222): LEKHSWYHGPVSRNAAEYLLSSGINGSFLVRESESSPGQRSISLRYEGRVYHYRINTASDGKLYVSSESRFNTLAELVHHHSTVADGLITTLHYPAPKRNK

[13] = target: SHC1-PTB (Homo sapiens) (UniProt P29353); conditions: cited from earlier work
Sequence of SHC1-PTB (Homo sapiens) (P29353 483-583): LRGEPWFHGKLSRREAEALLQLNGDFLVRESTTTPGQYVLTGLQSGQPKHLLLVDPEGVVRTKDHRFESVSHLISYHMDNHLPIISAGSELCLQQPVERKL

[14] = target: GRB2 (Homo sapiens) (UniProt P62993); conditions: cited from earlier work
Sequence of GRB2 (Homo sapiens) (P62993 55-157): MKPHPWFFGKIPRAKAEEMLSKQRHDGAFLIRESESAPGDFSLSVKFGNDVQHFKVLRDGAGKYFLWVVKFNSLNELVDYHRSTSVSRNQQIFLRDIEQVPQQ

[15] = target: NCK2 (Homo sapiens) (UniProt O43639); conditions: cited from earlier work
Sequence of NCK2 (Homo sapiens) (O43639 280-380): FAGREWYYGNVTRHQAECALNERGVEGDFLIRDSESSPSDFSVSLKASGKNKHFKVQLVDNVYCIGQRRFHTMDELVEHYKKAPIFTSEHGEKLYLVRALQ

[16] = target: ABL2 (Homo sapiens) (UniProt P42684); conditions: cited from earlier work
Sequence of ABL2 (Homo sapiens) (P42684 168-268): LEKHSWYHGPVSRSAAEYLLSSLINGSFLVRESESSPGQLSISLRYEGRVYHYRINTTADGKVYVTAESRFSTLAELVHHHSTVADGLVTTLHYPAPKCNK

[17] = target: SRC (Homo sapiens) (UniProt P12931); conditions: cited from earlier work
[18] = target: YES1 (Homo sapiens) (UniProt P07947); conditions: cited from earlier work
Sequence of YES1 (Homo sapiens) (P07947 153-260): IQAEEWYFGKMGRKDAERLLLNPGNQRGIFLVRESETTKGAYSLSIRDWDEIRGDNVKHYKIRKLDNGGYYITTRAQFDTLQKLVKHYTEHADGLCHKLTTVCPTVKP

[19] = target: ABL2 (Homo sapiens) (UniProt P42684); conditions: cited from earlier work; remark: listed apart in the source
[20] = target: SHC1-PTB (Homo sapiens) (UniProt P29353); conditions: cited from earlier work; remark: listed apart in the source
[21] = target: SYK-NC (Homo sapiens) (UniProt P43405); conditions: cited from earlier work
[22] = target: PIK3R2-NC (Homo sapiens) (UniProt O00459); conditions: cited from earlier work
Sequence of PIK3R2-NC (Homo sapiens) (O00459 325-721): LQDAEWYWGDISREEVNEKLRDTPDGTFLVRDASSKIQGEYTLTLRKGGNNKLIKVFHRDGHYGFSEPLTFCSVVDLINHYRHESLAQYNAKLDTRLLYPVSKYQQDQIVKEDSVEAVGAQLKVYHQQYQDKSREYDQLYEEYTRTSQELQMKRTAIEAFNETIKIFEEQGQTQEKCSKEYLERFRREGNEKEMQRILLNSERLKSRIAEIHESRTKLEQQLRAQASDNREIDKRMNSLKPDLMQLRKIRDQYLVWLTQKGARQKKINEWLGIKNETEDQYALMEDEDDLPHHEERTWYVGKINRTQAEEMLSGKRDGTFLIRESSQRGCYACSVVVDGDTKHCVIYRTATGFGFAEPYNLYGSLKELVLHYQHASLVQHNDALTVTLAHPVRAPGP

[23] = target: ABL2 (Homo sapiens) (UniProt P42684); conditions: cited from earlier work; remark: listed apart in the source
[24] = target: PLCG1-NC (Homo sapiens) (UniProt P19174); conditions: cited from earlier work
Sequence of PLCG1-NC (Homo sapiens) (P19174 545-761): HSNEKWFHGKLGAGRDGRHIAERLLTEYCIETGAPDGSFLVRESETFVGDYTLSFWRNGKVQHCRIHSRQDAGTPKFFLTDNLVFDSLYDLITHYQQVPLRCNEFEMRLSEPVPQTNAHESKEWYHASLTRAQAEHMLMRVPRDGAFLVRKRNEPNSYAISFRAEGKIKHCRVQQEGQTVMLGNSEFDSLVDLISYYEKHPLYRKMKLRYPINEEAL

[25] = target: RASA1-N (Homo sapiens) (UniProt P20936); conditions: cited from earlier work
Sequence of RASA1-N (Homo sapiens) (P20936 176-446): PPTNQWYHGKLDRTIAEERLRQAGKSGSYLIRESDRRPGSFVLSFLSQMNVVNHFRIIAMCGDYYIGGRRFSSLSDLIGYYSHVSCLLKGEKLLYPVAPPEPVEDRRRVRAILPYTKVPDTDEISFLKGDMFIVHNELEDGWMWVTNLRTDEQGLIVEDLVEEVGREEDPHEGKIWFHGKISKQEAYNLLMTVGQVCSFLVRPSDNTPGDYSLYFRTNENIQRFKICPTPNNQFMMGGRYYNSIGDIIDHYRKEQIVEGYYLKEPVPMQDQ

[26] = target: SH2B3 (Homo sapiens) (UniProt Q9UQQ2); conditions: cited from earlier work
Sequence of SH2B3 (Homo sapiens) (Q9UQQ2 359-467): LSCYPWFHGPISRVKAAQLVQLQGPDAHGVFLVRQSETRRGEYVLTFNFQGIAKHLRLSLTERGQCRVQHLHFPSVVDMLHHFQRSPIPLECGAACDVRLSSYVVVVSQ

[27] = target: SHC1-PTB (Homo sapiens) (UniProt P29353); conditions: cited from earlier work; remark: listed apart in the source
[28] = target: PIK3R3-NC (Homo sapiens) (UniProt Q92569); conditions: cited from earlier work
[29] = target: VAV2 (Homo sapiens) (UniProt P52735); conditions: cited from earlier work
Sequence of VAV2 (Homo sapiens) (P52735 668-772): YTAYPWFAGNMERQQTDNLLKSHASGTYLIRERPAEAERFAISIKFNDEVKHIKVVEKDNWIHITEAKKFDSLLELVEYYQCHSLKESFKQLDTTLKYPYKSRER

[30] = target: SLA2 (Homo sapiens) (UniProt Q9H6Q3); conditions: cited from earlier work
Sequence of SLA2 (Homo sapiens) (Q9H6Q3 89-196): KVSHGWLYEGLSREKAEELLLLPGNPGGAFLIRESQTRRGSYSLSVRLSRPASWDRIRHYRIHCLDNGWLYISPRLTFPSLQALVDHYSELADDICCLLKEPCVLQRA

[31] = target: CRK (Homo sapiens) (UniProt P46108); conditions: cited from earlier work
Sequence of CRK (Homo sapiens) (P46108 8-123): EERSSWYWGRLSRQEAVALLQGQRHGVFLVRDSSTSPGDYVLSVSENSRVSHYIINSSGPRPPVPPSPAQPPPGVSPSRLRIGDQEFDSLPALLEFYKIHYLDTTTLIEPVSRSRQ

[32] = target: SYK-NC (Homo sapiens) (UniProt P43405); conditions: cited from earlier work; remark: listed apart in the source
[33] = target: ABL2 (Homo sapiens) (UniProt P42684); conditions: cited from earlier work; remark: listed apart in the source
[34] = target: RASA1-N (Homo sapiens) (UniProt P20936); conditions: cited from earlier work; remark: listed apart in the source
[35] = target: CRKL (Homo sapiens) (UniProt P46109); conditions: cited from earlier work
Sequence of CRKL (Homo sapiens) (P46109 9-107): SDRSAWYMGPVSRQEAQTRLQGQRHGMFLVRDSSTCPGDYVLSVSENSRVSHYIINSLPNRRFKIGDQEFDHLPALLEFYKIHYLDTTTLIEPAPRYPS

[36] = target: PLCG2-NC (Homo sapiens) (UniProt P16885); conditions: cited from earlier work
Sequence of PLCG2-NC (Homo sapiens) (P16885 527-740): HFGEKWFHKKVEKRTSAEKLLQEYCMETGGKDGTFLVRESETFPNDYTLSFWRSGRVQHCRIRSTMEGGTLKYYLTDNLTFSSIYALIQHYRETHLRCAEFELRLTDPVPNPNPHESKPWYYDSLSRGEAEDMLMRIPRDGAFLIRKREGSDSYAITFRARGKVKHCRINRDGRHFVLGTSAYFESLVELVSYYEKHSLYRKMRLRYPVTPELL

[37] = target: RASA1-N (Homo sapiens) (UniProt P20936); conditions: cited from earlier work; remark: listed apart in the source
[38] = target: CRKL (Homo sapiens) (UniProt P46109); conditions: cited from earlier work; remark: listed apart in the source
[39] = target: TNS1 (Homo sapiens) (UniProt Q9HBL0); conditions: cited from earlier work
Sequence of TNS1 (Homo sapiens) (Q9HBL0 1562-1681): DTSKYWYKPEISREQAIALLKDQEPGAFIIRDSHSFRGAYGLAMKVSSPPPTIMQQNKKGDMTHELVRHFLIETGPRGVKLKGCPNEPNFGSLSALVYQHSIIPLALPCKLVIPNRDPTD

[40] = target: SHB (Homo sapiens) (UniProt Q15464); conditions: cited from earlier work
Sequence of SHB (Homo sapiens) (Q15464 405-509): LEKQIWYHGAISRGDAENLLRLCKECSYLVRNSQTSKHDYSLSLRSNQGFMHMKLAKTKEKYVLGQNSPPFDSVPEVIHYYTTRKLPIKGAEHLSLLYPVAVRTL

[41] = target: ABL2 (Homo sapiens) (UniProt P42684); conditions: cited from earlier work; remark: listed apart in the source
[42] = target: CRK (Homo sapiens) (UniProt P46108); conditions: cited from earlier work; remark: listed apart in the source
[43] = target: YES1 (Homo sapiens) (UniProt P07947); conditions: cited from earlier work; remark: listed apart in the source
[44] = target: BMX (Homo sapiens) (UniProt P51813); conditions: cited from earlier work
Sequence of BMX (Homo sapiens) (P51813 291-397): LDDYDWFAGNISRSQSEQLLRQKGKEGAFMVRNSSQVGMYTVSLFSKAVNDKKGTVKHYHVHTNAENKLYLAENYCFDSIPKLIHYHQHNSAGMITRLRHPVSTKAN

[45] = target: ABL2 (Homo sapiens) (UniProt P42684); conditions: cited from earlier work; remark: listed apart in the source
[46] = target: SYK-NC (Homo sapiens) (UniProt P43405); conditions: cited from earlier work; remark: listed apart in the source
[47] = target: ABL2 (Homo sapiens) (UniProt P42684); conditions: cited from earlier work; remark: listed apart in the source
[48] = target: CRKL (Homo sapiens) (UniProt P46109); conditions: cited from earlier work; remark: listed apart in the source
[49] = target: SRC (Homo sapiens) (UniProt P12931); conditions: cited from earlier work; remark: listed apart in the source
[50] = target: TNS4 (Homo sapiens) (UniProt Q8IZW8); conditions: cited from earlier work
Sequence of TNS4 (Homo sapiens) (Q8IZW8 444-561): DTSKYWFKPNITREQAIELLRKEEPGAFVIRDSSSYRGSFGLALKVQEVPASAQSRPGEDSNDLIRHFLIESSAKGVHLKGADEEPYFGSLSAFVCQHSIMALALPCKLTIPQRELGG

[51] = target: HSH2D (Homo sapiens) (UniProt Q96JZ2); conditions: cited from earlier work
Sequence of HSH2D (Homo sapiens) (Q96JZ2 29-130): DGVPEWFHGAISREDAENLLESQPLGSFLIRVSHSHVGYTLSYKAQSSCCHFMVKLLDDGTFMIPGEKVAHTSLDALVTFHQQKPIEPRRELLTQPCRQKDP

[52] = target: SYK-N (Homo sapiens) (UniProt P43405); conditions: cited from earlier work
[53] = target: SYK-N (Homo sapiens) (UniProt P43405); conditions: cited from earlier work; remark: listed apart in the source

Kd [1]: 10900 nM | Kd [2]: 1470 nM
Substance: ErbB1 pY900 phosphopeptide, dye-free

Kd [1]: 430 nM
Substance: ErbB1 pY978 phosphopeptide, dye-free

Kd [3]: 13400 nM | Kd [2]: 1520 nM
Substance: ErbB2 pY685 phosphopeptide, dye-free

Kd [1]: 3460 nM
Substance: ErbB4 pY833 phosphopeptide, dye-free

Kd [4]: 1370 nM and 4860 nM | Kd [5]: 1180 nM and 1600 nM | Kd [6]: 1180 nM and 1610 nM | Kd [7]: 801 nM and 1170 nM
Substance: ErbB4 pY1301 phosphopeptide (18-mer), rhodamine-labelled, for protein microarrays

Kd [8]: 256 nM | Kd [9]: 6960 nM | Kd [10]: 2510 nM
Substance: PIK3R1 N-terminal SH2 domain (domain or fragment)

Kd [11]: 6930 nM
Substance: PIK3R2 tandem SH2 domains (from UniProt O00459 1-728) (domain or fragment)

Kd [11]: 5420 nM
Substance: SHC2 PTB domain (from UniProt P98077 1-582) (domain or fragment)

Substance: …pYHNQPLNPd
apparent Kd (screen) [12]: 523 nM | apparent Kd (screen) [13]: 321 nM | apparent Kd (screen) [14]: 2000 nM | apparent Kd (screen) [15]: 2000 nM | apparent Kd (screen) [16]: 62 nM

Substance: …pYKGLWIPEd
apparent Kd (screen) [17]: 579 nM | apparent Kd (screen) [18]: 540 nM

Substance: …pYLGLDVPV
apparent Kd (screen) [19]: 210 nM | apparent Kd (screen) [20]: 277 nM

Substance: …pYLSEFSLK
apparent Kd (screen) [21]: 1670 nM | apparent Kd (screen) [22]: 2000 nM | apparent Kd (screen) [23]: 221 nM | apparent Kd (screen) [24]: 2000 nM | apparent Kd (screen) [25]: 709 nM | apparent Kd (screen) [26]: 2000 nM | apparent Kd (screen) [27]: 24 nM | apparent Kd (screen) [28]: 2000 nM | apparent Kd (screen) [29]: 2000 nM | apparent Kd (screen) [30]: 2000 nM

Substance: …pYMTPMRDKd
apparent Kd (screen) [31]: 29 nM | apparent Kd (screen) [32]: 330 nM | apparent Kd (screen) [33]: 18 nM | apparent Kd (screen) [34]: 27 nM | apparent Kd (screen) [35]: 65 nM

Substance: …pYNADGGKMd
apparent Kd (screen) [36]: 1140 nM

Substance: …pYQDPHSTAd
apparent Kd (screen) [37]: 1320 nM | apparent Kd (screen) [38]: 2000 nM | apparent Kd (screen) [39]: 1280 nM | apparent Kd (screen) [40]: 991 nM | apparent Kd (screen) [41]: 133 nM | apparent Kd (screen) [42]: 1230 nM | apparent Kd (screen) [43]: 378 nM | apparent Kd (screen) [44]: 1070 nM | apparent Kd (screen) [45]: 74 nM | apparent Kd (screen) [46]: 981 nM

Substance: …pYRAPTSTId
apparent Kd (screen) [47]: 1230 nM | apparent Kd (screen) [48]: 1240 nM

Substance: …pYSADPTVFd
apparent Kd (screen) [49]: 504 nM

Substance: …pYTHQSDVWd
apparent Kd (screen) [50]: 299 nM | apparent Kd (screen) [51]: 1130 nM

Substance: …pYVNEPLYLd
apparent Kd (screen) [52]: 6 nM

Substance: …pYVREHKDNd
apparent Kd (screen) [53]: 559 nM
